Measured values: patent US20060234945A1, “Ophthalmic therapeutic composition” (Nihon Tenganyaku Kenkyusho Co., LTD., priority 2002, published 2006)

Tested on: rabbit corneal wound model
Assay: Corneal wound healing promotion action 1 (in vivo), approx. 6 mm corneal epithelial abrasion
Design: species or system Japanese white rabbit
Conditions: 5 μM eye drop
Description: (2) Corneal Wound Healing Promotion Action 1 (In Vivo)
Using a male Japanese white rabbit, a wound of approximately 6 mm in diameter was produced in the cornea by inducing corneal epithelial abrasion in accordance with the method of Cintron et al. (Ophthalmic Res., 11, pp. 90-96 (1979)). The wound area was measured using the fluorescein-stained area as an index. The effects of the test compound on corneal wound healing were examined.
The eye drops containing the respective concentrations of the test compound were instilled (30 μl at a time) at 0, 3, 6, 9, 12, 18, 24, 27, 30, 33, 36, 42, and 48 hours after inducing corneal epithelial abrasion. In measuring the wound area, fluorescein staining was carried out and a photograph of the cornea was measured. The fluorescein-stained area of the photographed cornea was computed using an image analysis processing system.
In Tables 1 and 2, the respective values indicate the mean value±standard deviation (n=6). Statistical analysis was carried out using Dunnett's multiple comparison with respect to PBS with the area of the corneal wound portion immediately after (0 hours after) corneal epithelial abrasion being set to 100% (*p<0.05, ** p<0.01; vs. control).

B1: EGF: Epidermal Growth Factor, polypeptide with a molecular weight of 6000, mitosis-promoting growth factor for corneal epithelium (protein, UniProt P01133 23-1207, looked up)
Pro-epidermal growth factor: PQHWSCPEGTLAGNGNSTCVGPAPFLIFSHGNSIFRIDTEGTNYEQLVVDAGVSVIMDFHYNEKRIYWVDLERQLLQRVFLNGSRQERVCNIEKNVSGMAINWINEEVIWSNQQEGIITVTDMKGNNSHILLSALKYPANVAVDPVERFIFWSSEVAGSLYRADLDGVGVKALLETSEKITAVSLDVLDKRLFWIQYNREGSNSLICSCDYDGGSVHISKHPTQHNLFAMSLFGDRIFYSTWKMKTIWIANKHTGKDMVRINLHSSFVPLGELKVVHPLAQPKAEDDTWEPEQKLCKLRKGNCSSTVCGQDLQSHLCMCAEGYALSRDRKYCEDVNECAFWNHGCTLGCKNTPGSYYCTCPVGFVLLPDGKRCHQLVSCPRNVSECSHDCVLTSEGPLCFCPEGSVLERDGKTCSGCSSPDNGGCSQLCVPLSPVSWECDCFPGYDLQLDEKSCAASGPQPFLLFANSQDIRHMHFDGTDYGTLLSQQMGMVYALDHDPVENKIYFAHTALKWIERANMDGSQRERLIEEGVDVPEGLAVDWIGRRFYWTDRGKSLIGRSDLNGKRSKIITKENISQPRGIAVHPMAKRLFWTDTGINPRIESSSLQGLGRLVIASSDLIWPSGITIDFLTDKLYWCDAKQSVIEMANLDGSKRRRLTQNDVGHPFAVAVFEDYVWFSDWAMPSVMRVNKRTGKDRVRLQGSMLKPSSLVVVHPLAKPGADPCLYQNGGCEHICKKRLGTAWCSCREGFMKASDGKTCLALDGHQLLAGGEVDLKNQVTPLDILSKTRVSEDNITESQHMLVAEIMVSDQDDCAPVGCSMYARCISEGEDATCQCLKGFAGDGKLCSDIDECEMGVPVCPPASSKCINTEGGYVCRCSEGYQGDGIHCLDIDECQLGEHSCGENASCTNTEGGYTCMCAGRLSEPGLICPDSTPPPHLREDDHHYSVRNSDSECPLSHDGYCLHDGVCMYIEALDKYACNCVVGYIGERCQYRDLKWWELRHAGHGQQQKVIVVAVCVVVLVMLLLLSLWGAHYYRTQKLLSKNPKNPYEESSRDVRSRRPADTEDGMSSCPQPWFVVIKEHQDLKNGGQPVAGEDGQAADGSMQPTSWRQEPQLCGMGTEQGCWIPVSSDKGSCPQVMERSFHMPSYGTQTLEGGVEKPHSLLSANPLWQQRALDPPHQMELTQ
modifications: Pro-epidermal growth factor
notes: Epidermal Growth Factor, polypeptide with a molecular weight of 6000, mitosis-promoting growth factor for corneal epithelium
Healing ratio (%) (0 hr (baseline)): 0% | Healing ratio (%) (6 hr): 14.49 ± 3.42% | Healing ratio (%) (12 hr): 31.63 ± 1.29% | Healing ratio (%) (24 hr): 70.78 ± 6.91% | Healing ratio (%) (36 hr): 96.41 ± 3.97% | Healing ratio (%) (48 hr): 99.58 ± 1.03%
